# According to US20240228562A1, “NOVEL LIPOCALIN MUTEINS SPECIFIC FOR CONNECTIVE TISSUE GROWTH FACTOR (CTGF)” (PIERIS PHARMACEUTICALS GMBH, priority 2021, published 2024):
# B1: SEQ ID NO: 76: fusion protein comprising two CTGF-binding lipocalin muteins (protein)
# chain: QDSTSDLIPAPPLSKVPLQQNFQDNQFQGKWYVVGLAGNAILREDKQPAKMFATIYELKEDKSYDVTSVRFEAKSCKYTIKTFVPGSQPGEFTAGYIKSAPGQTSTLVRVVSTNYNQHAMVFFKHVTQNREIFVITLYGRTKELTSELKENFIRFSKSLGLPENHIVFPVPIDQCIDGGGGGSGGGGSGGGGSQDSTSDLIPAPPLSKVPLQQNFQDNQFQGKWYVVGWAGNVKLREDKQPLKMSATIYELKEDKSYDVTEVVFEQKKCHYIIKTFVPGSQPGEFTAGDIKSPPGYTSSLVRVVSTNYNQHAMVFFKKVSQNREFFWITLYGRTKELTSELKENFIRFSKSLGLPENHIVFPVPIDQCIDG
# modifications: fusion protein
# Columns and labels:
# CTGF = molecular target: T1, CTGF (Homo sapiens, UniProt P29279); assay: Specificity ELISA (CCN proteins), human CTGF; format: binding; conditions: coated 1 μg/ml, muteins from 1000 nM
# T1 sequence (P29279 27-349): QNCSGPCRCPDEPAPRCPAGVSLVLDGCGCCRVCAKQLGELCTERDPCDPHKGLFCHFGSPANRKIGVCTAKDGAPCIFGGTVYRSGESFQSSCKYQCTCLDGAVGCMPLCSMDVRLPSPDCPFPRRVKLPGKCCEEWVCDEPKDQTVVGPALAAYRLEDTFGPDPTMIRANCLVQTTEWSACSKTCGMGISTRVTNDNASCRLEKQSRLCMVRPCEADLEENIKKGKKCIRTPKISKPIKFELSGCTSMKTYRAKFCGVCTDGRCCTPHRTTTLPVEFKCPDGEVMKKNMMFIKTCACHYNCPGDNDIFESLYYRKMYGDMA
# Method: (§1) Binding of muteins to closely related proteins of CTGF was tested by an ELISA assay. In detail, a 384-well plate suitable for fluorescence measurements (Greiner FLUOTRAC™ 600, black flat bottom, high-binding) was coated with 20 μl of human CTGF or the other members of the CCN protein family at a concentration of 1 μg/ml in PBS over night at 4° C. After washing with PBS with 0.05% Tween 20, wells were blocked with 100 μl blocking buffer containing 0.1% Tween 20 and 2% BSA (PBS-T/BSA) for 1 h at room temperature. 20 μl of serially diluted muteins starting at 1000 nM were incubated in PBS-T/BSA for 1 h at room temperature (RT).
# (§2) The residual supernatants were discarded and 20 μl HRP-labeled anti-NGAL or anti-Strep-Tag antibody was added at a predetermined optimal concentration in PBS-T/BSA and incubated for 1 h at RT. After washing, 20 μl fluorogenic HRP substrate (QuantaBlu, Thermo) was added to each well, and the reaction was allowed to proceed for 2 to 60 minutes. The fluorescence intensity of every well on the plate was read using a fluorescence microplate reader (Tecan). When the signal for human CTGF approached saturation, the cross reactivity to the other proteins was assessed.
# huWISP-3 = molecular target: T2, huWISP-3 (Homo sapiens, UniProt O95389); assay: Specificity ELISA (CCN proteins), huWISP-3; format: binding; conditions: coated 1 μg/ml; assessed when human CTGF signal approached saturation
# T2 sequence (O95389 24-354): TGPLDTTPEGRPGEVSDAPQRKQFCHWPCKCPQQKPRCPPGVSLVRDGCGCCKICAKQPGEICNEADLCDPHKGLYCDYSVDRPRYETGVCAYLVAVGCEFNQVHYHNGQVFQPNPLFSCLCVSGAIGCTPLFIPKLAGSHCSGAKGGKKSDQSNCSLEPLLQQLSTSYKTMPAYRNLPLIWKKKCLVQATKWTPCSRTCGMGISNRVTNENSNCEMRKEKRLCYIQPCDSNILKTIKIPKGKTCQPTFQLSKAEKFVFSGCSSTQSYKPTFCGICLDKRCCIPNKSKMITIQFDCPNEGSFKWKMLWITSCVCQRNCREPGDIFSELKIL
# Method: as §1, §2
# huWISP-1 = molecular target: T3, huWISP-1 (Homo sapiens, UniProt O95388); assay: Specificity ELISA (CCN proteins), huWISP-1; format: binding; conditions: coated 1 μg/ml; assessed when human CTGF signal approached saturation
# T3 sequence (O95388 23-367): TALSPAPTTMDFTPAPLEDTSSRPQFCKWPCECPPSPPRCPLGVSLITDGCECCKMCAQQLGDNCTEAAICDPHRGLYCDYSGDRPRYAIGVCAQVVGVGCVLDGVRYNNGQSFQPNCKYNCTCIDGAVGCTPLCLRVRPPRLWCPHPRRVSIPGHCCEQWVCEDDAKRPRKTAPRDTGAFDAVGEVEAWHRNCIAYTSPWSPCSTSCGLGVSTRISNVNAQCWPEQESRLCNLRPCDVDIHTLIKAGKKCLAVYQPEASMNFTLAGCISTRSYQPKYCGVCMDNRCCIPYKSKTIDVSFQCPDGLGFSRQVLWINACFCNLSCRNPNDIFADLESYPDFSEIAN
# Method: as §1, §2
# huNOV = molecular target: T4, huNOV (Homo sapiens, UniProt P48745); assay: Specificity ELISA (CCN proteins), huNOV; format: binding; conditions: coated 1 μg/ml; assessed when human CTGF signal approached saturation
# T4 sequence (P48745 32-357): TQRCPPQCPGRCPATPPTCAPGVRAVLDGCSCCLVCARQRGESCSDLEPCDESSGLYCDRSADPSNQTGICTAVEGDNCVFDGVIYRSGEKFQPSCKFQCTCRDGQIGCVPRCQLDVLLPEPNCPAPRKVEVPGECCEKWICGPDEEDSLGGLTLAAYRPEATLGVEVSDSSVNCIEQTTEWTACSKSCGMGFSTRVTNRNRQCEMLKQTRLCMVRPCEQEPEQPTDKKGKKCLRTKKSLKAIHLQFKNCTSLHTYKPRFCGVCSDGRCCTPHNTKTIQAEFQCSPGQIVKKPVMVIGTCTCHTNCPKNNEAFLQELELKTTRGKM
# Method: as §1, §2
# huWISP-2 = molecular target: T5, huWISP-2 (Homo sapiens, UniProt O76076); assay: Specificity ELISA (CCN proteins), huWISP-2; format: binding; conditions: coated 1 μg/ml; assessed when human CTGF signal approached saturation
# T5 sequence (O76076 24-250): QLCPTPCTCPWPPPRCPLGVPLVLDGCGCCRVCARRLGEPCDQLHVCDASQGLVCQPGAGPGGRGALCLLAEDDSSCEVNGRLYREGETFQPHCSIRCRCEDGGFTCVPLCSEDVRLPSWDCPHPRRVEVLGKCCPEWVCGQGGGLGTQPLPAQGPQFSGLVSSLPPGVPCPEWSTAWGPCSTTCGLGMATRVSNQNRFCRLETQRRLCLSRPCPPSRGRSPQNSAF
# Method: as §1, §2
# [1] = Thermal stability assessment by nanoDSC; format: physicochemical; conditions: 1 mg/mL in PBS, scan 25-100° C. at 1° C./min
# Procedure, shortened: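 CTGF-specific lipocalin muteins at 1 mg/mL in PBS scanned from 25 to 100° C at 1° C/min by capillary nano-DSC. Where several transitions occur, the Tm of the major unfolding event is reported, along with onset temperature. Some muteins were expressed in E. coli, others in CHO cells.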
# huCYR61 = molecular target: T6, huCYR61 (Homo sapiens, UniProt O00622); assay: Specificity ELISA (CCN proteins), huCYR61; format: binding; conditions: coated 1 μg/ml; assessed when human CTGF signal approached saturation
# T6 sequence (O00622 25-381): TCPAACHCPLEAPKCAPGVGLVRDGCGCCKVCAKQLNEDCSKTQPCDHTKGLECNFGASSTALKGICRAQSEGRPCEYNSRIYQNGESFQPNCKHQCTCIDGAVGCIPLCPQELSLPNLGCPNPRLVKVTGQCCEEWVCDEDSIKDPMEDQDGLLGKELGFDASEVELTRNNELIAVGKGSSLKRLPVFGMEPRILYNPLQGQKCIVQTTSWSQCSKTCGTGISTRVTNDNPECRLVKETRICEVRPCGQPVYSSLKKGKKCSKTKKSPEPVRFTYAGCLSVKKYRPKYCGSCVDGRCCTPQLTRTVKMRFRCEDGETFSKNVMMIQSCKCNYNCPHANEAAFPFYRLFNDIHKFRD
# Method: as §1, §2
molecule,measurement,setting,value
B1,ELISA binding to HUMAN CTGF,CTGF,Binding
same,ELISA binding to huWISP-3,huWISP-3,No binding
same,ELISA binding to huWISP-1,huWISP-1,No binding
same,ELISA binding to huNOV,huNOV,No binding
same,ELISA binding to huWISP-2,huWISP-2,No binding
same,ONSET MELTING,[1],63 °C
same,TM,[1]; major transition,73 °C
same,ELISA binding to huCYR61,huCYR61,No binding
